Data set [1] deals with the molecule itself. As to the kind of experiment: SDS-PAGE (SDS-resistant oligomers); purified His-tagged proteins resolved on SDS-PAGE without urea; Coomassie staining and immunoblotting. (In general: A western blot detects proteins with antibodies after separation by electrophoresis.)
Data set [2] concerns the molecule itself. In words: SDS-PAGE (SDS-resistant oligomers); whole-cell lysates of HEK293 cells on SDS-PAGE without urea; immunoblot with anti-HA or anti-AKAP12; cells also treated with isoproterenol (10 uM, 0, 5, 30 min), KT5720, PD98059 or Rolipram (45 min).

Substitutions are numbered along the chain they refer to. Names may count otherwise.

B1: His-tagged AKAP12 (840-1782) (domain or fragment, human, UniProt Q02952 840-1782, looked up)
chain: DSDVPAVVPLSEYDAVEREKMEAQQAQKSAEQPEQKAATEVSKELSESQVHMMAAAVADGTRAATIIEERSPSWISASVTEPLEQVEAEAALLTEEVLEREVIAEEEPPTVTEPLPENREARGDTVVSEAELTPEAVTAAETAGPLGAEEGTEASAAEETTEMVSAVSQLTDSPDTTEEATPVQEVEGGVPDIEEQERRTQEVLQAVAEKVKEESQLPGTGGPEDVLQPVQRAEAERPEEQAEASGLKKETDVVLKVDAQEAKTEPFTQGKVVGQTTPESFEKAPQVTESIESSELVTTCQAETLAGVKSQEMVMEQAIPPDSVETPTDSETDGSTPVADFDAPGTTQKDEIVEIHEENEVASGTQSGGTEAEAVPAQKERPPAPSSFVFQEETKEQSKMEDTLEHTDKEVSVETVSILSKTEGTQEADQYADEKTKDVPFFEGLEGSIDTGITVSREKVTEVALKGEGTEEAECKKDDALELQSHAKSPPSPVEREMVVQVEREKTEAEPTHVNEEKLEHETAVTVSEEVSKQLLQTVNVPIIDGAKEVSSLEGSPPPCLGQEEAVCTKIQVQSSEASFTLTAAAEEEKVLGETANILETGETLEPAGAHLVLEEKSSEKNEDFAAHPGEDAVPTGPDCQAKSTPVIVSATTKKGLSSDLEGEKTTSLKWKSDEVDEQVACQEVKVSVAIEDLEPENGILELETKSSKLVQNIIQTAVDQFVRTEETATEMLTSELQTQAHVIKADSQDAGQETEKEGEEPQASAQDETPITSAKEESESTAVGQAHSDISKDMSEASEKTMTVEVEGSTVNDQQLEEVVLPSEEEGGGAGTKSVPEDDGHALLAERIEKSLVEPKEDEKGDDVDDPENQNSALADTDASGGLTKESPDTNGPKQKEKEDAQEVELQEGKVHSESDKAITPQAQEELQKQERESAKSELTES
notes: AKAP12, human, C-terminal fragment, residues 840-1782, in pET28b(+); also called C-terminal (840-1782) fragment of AKAP12; source: E. coli, purified (Ni-NTA)
Turning to B1, in data set [1], the “stoichiometry N” value turned out to be 2.

B2: HA-AKAP12 (840-1782) (domain or fragment, human, UniProt Q02952 840-1782, looked up)
chain: B1 chain
notes: AKAP12, human, C-terminal fragment, residues 840-1782; also called AKAP12 C-terminal (840-1782) fragment; source: HEK293, transfected (pcDNA3.1), in whole-cell lysate
As for B2, in data set [2], the “stoichiometry N” value came out at 2.

B3: His-tagged human AKAP12 (natural protein, UniProt Q02952 1-1782, looked up)
chain: MGAGSSTEQRSPEQPPEGSSTPAEPEPSGGGPSAEAAPDTTADPAIAASDPATKLLQKNGQLSTINGVAEQDELSLQEGDLNGQKGALNGQGALNSQEEEEVIVTEVGQRDSEDVSKRDSDKEMATKSAVVHDITDDGQEETPEIIEQIPSSESNLEELTQPTESQANDIGFKKVFKFVGFKFTVKKDKTEKPDTVQLLTVKKDEGEGAAGAGDHKDPSLGAGEAASKESEPKQSTEKPEETLKREQSHAEISPPAESGQAVEECKEEGEEKQEKEPSKSAESPTSPVTSETGSTFKKFFTQGWAGWRKKTSFRKPKEDEVEASEKKKEQEPEKVDTEEDGKAEVASEKLTASEQAHPQEPAESAHEPRLSAEYEKVELPSEEQVSGSQGPSEEKPAPLATEVFDEKIEVHQEEVVAEVHVSTVEERTEEQKTEVEETAGSVPAEELVEMDAEPQEAEPAKELVKLKETCVSGEDPTQGADLSPDEKVLSKPPEGVVSEVEMLSSQERMKVQGSPLKKLFTSTGLKKLSGKKQKGKRGGGDEESGEHTQVPADSPDSQEEQKGESSASSPEEPEEITCLEKGLAEVQQDGEAEEGATSDGEKKREGVTPWASFKKMVTPKKRVRRPSESDKEDELDKVKSATLSSTESTASEMQEEMKGSVEEPKPEEPKRKVDTSVSWEALICVGSSKKRARRGSSSDEEGGPKAMGGDHQKADEAGKDKETGTDGILAGSQEHDPGQGSSSPEQAGSPTEGEGVSTWESFKRLVTPRKKSKSKLEEKSEDSIAGSGVEHSTPDTEPGKEESWVSIKKFIPGRRKKRPDGKQEQAPVEDAGPTGANEDDSDVPAVVPLSEYDAVEREKMEAQQAQKSAEQPEQKAATEVSKELSESQVHMMAAAVADGTRAATIIEERSPSWISASVTEPLEQVEAEAALLTEEVLEREVIAEEEPPTVTEPLPENREARGDTVVSEAELTPEAVTAAETAGPLGAEEGTEASAAEETTEMVSAVSQLTDSPDTTEEATPVQEVEGGVPDIEEQERRTQEVLQAVAEKVKEESQLPGTGGPEDVLQPVQRAEAERPEEQAEASGLKKETDVVLKVDAQEAKTEPFTQGKVVGQTTPESFEKAPQVTESIESSELVTTCQAETLAGVKSQEMVMEQAIPPDSVETPTDSETDGSTPVADFDAPGTTQKDEIVEIHEENEVASGTQSGGTEAEAVPAQKERPPAPSSFVFQEETKEQSKMEDTLEHTDKEVSVETVSILSKTEGTQEADQYADEKTKDVPFFEGLEGSIDTGITVSREKVTEVALKGEGTEEAECKKDDALELQSHAKSPPSPVEREMVVQVEREKTEAEPTHVNEEKLEHETAVTVSEEVSKQLLQTVNVPIIDGAKEVSSLEGSPPPCLGQEEAVCTKIQVQSSEASFTLTAAAEEEKVLGETANILETGETLEPAGAHLVLEEKSSEKNEDFAAHPGEDAVPTGPDCQAKSTPVIVSATTKKGLSSDLEGEKTTSLKWKSDEVDEQVACQEVKVSVAIEDLEPENGILELETKSSKLVQNIIQTAVDQFVRTEETATEMLTSELQTQAHVIKADSQDAGQETEKEGEEPQASAQDETPITSAKEESESTAVGQAHSDISKDMSEASEKTMTVEVEGSTVNDQQLEEVVLPSEEEGGGAGTKSVPEDDGHALLAERIEKSLVEPKEDEKGDDVDDPENQNSALADTDASGGLTKESPDTNGPKQKEKEDAQEVELQEGKVHSESDKAITPQAQEELQKQERESAKSELTES
notes: A-kinase-anchoring protein 12 (AKAP12, gravin, SSECKS), human, full length (1-1782), calculated MW 191.5 kDa; also called gravin; SSECKS; source: E. coli, purified by gel filtration chromatography (Superose 12)
With B3, in data set [1], the “stoichiometry N” value was found to be 2.

B4: HA-AKAP12M3 (S627A, S696-698A, S772A) (natural protein, human, UniProt Q02952 1-1782, looked up)
chain: B3 chain with S627A, S696A, S697A, S698A, S772A
notes: AKAP12, human, with alanine substitution of the protein kinase A phosphorylation sites; source: HEK293, transfected (pcDNA3.1), in whole-cell lysate
With B4, the “stoichiometry N” value in data set [2] is 2.

B5: His-tagged AKAP12 (1-840) (domain or fragment, human, UniProt Q02952 1-840, looked up)
chain: MGAGSSTEQRSPEQPPEGSSTPAEPEPSGGGPSAEAAPDTTADPAIAASDPATKLLQKNGQLSTINGVAEQDELSLQEGDLNGQKGALNGQGALNSQEEEEVIVTEVGQRDSEDVSKRDSDKEMATKSAVVHDITDDGQEETPEIIEQIPSSESNLEELTQPTESQANDIGFKKVFKFVGFKFTVKKDKTEKPDTVQLLTVKKDEGEGAAGAGDHKDPSLGAGEAASKESEPKQSTEKPEETLKREQSHAEISPPAESGQAVEECKEEGEEKQEKEPSKSAESPTSPVTSETGSTFKKFFTQGWAGWRKKTSFRKPKEDEVEASEKKKEQEPEKVDTEEDGKAEVASEKLTASEQAHPQEPAESAHEPRLSAEYEKVELPSEEQVSGSQGPSEEKPAPLATEVFDEKIEVHQEEVVAEVHVSTVEERTEEQKTEVEETAGSVPAEELVEMDAEPQEAEPAKELVKLKETCVSGEDPTQGADLSPDEKVLSKPPEGVVSEVEMLSSQERMKVQGSPLKKLFTSTGLKKLSGKKQKGKRGGGDEESGEHTQVPADSPDSQEEQKGESSASSPEEPEEITCLEKGLAEVQQDGEAEEGATSDGEKKREGVTPWASFKKMVTPKKRVRRPSESDKEDELDKVKSATLSSTESTASEMQEEMKGSVEEPKPEEPKRKVDTSVSWEALICVGSSKKRARRGSSSDEEGGPKAMGGDHQKADEAGKDKETGTDGILAGSQEHDPGQGSSSPEQAGSPTEGEGVSTWESFKRLVTPRKKSKSKLEEKSEDSIAGSGVEHSTPDTEPGKEESWVSIKKFIPGRRKKRPDGKQEQAPVEDAGPTGANEDD
notes: AKAP12, human, N-terminal fragment, residues 1-840, in pET28b(+); also called N-terminal (1-840) fragment of AKAP12; source: E. coli, purified (Ni-NTA)
In the case of B5, the “stoichiometry N” value in data set [1] was 2.

In general, stoichiometry N refers to a count of units in the complex or per binding partner.

Source of the values: PMC3113324, “AKAP5 and AKAP12 Form Homo-oligomers” (Journal of Molecular Signaling, 2011).
